From patent US20210244739A1

Target: human protein kinase R (PKR) (human) (UniProt P19525)
Assay: cell-based or functional assay

Sequence of UniProt P19525 (P19525 2-551 limits assumed): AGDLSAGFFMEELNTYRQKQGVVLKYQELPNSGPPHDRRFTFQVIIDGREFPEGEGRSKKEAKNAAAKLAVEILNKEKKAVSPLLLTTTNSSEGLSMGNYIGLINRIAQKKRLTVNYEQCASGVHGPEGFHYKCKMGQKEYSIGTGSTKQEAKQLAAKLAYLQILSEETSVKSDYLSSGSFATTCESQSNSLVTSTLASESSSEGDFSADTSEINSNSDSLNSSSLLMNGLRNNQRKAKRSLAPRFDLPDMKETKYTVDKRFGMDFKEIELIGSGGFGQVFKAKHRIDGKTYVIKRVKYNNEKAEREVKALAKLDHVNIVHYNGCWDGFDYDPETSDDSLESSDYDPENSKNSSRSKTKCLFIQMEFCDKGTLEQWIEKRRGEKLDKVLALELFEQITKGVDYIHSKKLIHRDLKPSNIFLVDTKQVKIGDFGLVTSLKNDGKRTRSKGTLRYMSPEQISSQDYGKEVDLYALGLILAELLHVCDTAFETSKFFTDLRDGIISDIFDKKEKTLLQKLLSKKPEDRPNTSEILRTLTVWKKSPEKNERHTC

## Yaba monkey tumor virus 012 (K3 ortholog)
  virus titre increase between 5 hpi and 48 hpi in HeLa cells: > 10 fold
